B1: L1-E2 (VHH)
VHH: EVQLQASGGGLVQPGGSLRLSCAASGFSISSATMSWVRQAPGKGLEWVSTVQDGAGIISSADSAKARFTISRDSAKNTLYLQMNSLKPEDTAVYYCRTVVFGRILRGQGTQVTVSS
notes: llama sdAb, only member of the L1-E2 family; also called sdAb L1-E2
B2: L1-C5 (VHH)
VHH: EVQLQASGGGLVQAGGSLRLSCIASGRAFSTTNMGWFRQAPGKEREFVTRVNWSGGVTSYADSVKGRFTLSRDYTKNTVYLQMNSLKPEDTAVYYCAGSTVWSTDRAHYNYWGQGTQVTVSS
notes: llama sdAb of the L1-H7 family; has a single N to Y substitution in framework 3 not seen in other members of the family; also called sdAb L1-C5
B3: L1-H7 (VHH)
VHH: EVQLQASGGGLVQAGGSLRLSCIASGRAFSTTNMGWFRQAPGKEREFVTRVNWSGGVTSYADSVKGRFTLSRDNTKNTVYLQMNSLKPEDTAVYYCAGSTVWSTDRAHYNYWGRGTQVTVSS
notes: llama sdAb of the L1-H7 family; also called sdAb L1-H7
B4: L1-G2+ (VHH)
VHH: EVQLQASGGGLVQAGGSLRLSCTASGRAFSTTNMGWFRQAPGKEREFVCRVNWSGGVTSYADSVKGRFTCSRDNTKNTVYLQMDSLKPEDTAVYYCAGSTVWSTDRKHYNYWGQGTQVTVSS
notes: also called disulfide mutant of L1-G2
B5: L1-G2 (VHH)
VHH: EVQLQASGGGLVQAGGSLRLSCTASGRAFSTTNMGWFRQAPGKEREFVTRVNWSGGVTSYADSVKGRFTLSRDNTKNTVYLQMDSLKPEDTAVYYCAGSTVWSTDRKHYNYWGQGTQVTVSS
notes: llama sdAb of the L1-H7 family; also called sdAb L1-G2
B6: L1-E6 (VHH)
VHH: EVQLQASGGGLVQAGGSLRLSCIASGRAFSTTNMGWFRQAPGKEREFVTRVNWSGGVTSYADPVKGRFTLSRDNTKNTVYLQMNSLKPEDTAVYYCAGSTVWSTDGAHYNYWGQGTQVTVSS
notes: llama sdAb of the L1-H7 family; also called sdAb L1-E6
B7: L1-H2 (VHH)
VHH: EVQLQASGGGLVQAGGSLRLSCAASGRTLSTGVMGWFRQLPGKEREFVARITWIAGSSLYADSVKGRFTISRDNTNNTVYLQMNALKPEDTAVYYCAANLAGNSWPYKTPMDYDSWGQGTQVTVSS
notes: llama sdAb of the L1-H2 family; also called sdAb L1-H2

The target of this experiment is T1, Vaccinia Virus, Western Reserve, L1R Protein with C-Terminal Histidine Tag (Vaccinia virus, strain Western Reserve, UniProt P07612).
T1 construct: also called L1 antigen; recombinant L1 antigen; source: obtained through BEI Resources (NR-2625), recombinant from baculovirus
Put plainly: SPR; […] (10 µg/ml, […], dissociation 600 s; […]. The following applies: both partners purified. In general terms: In SPR one partner is held on a chip, and binding of the other changes the refractive index at the surface.
B1: the Kd turned out to be 0.7 nM, the koff was 0.0045 s⁻¹ and the kon came to 6.5e+06 M⁻¹ s⁻¹.
Molecule B2 showed a Kd of 4 nM, a koff of 0.032 s⁻¹ and an association rate constant (kon) of 7.2e+06 M⁻¹ s⁻¹.
Turning to B3, binding was characterised by a dissociation constant (Kd) of 1.5 nM, the koff came to 0.00087 s⁻¹ and the kon was determined as 560000 M⁻¹ s⁻¹.
The like results for B4 were, in that order, 1 nM, 0.0021 s⁻¹ and 2.1e+06 M⁻¹ s⁻¹.
Regarding B5, the Kd is 1.9 nM, the koff turned out to be 0.001 s⁻¹ and the kon worked out at 530000 M⁻¹ s⁻¹.
Regarding B6, the affinity, expressed as Kd, was 2.6 nM; the koff turned out to be 0.001 s⁻¹; the kon worked out at 390000 M⁻¹ s⁻¹.
In turn, B7 came in with a Kd of 1.8 nM, a koff of 0.0021 s⁻¹ and a kon of 1.2e+06 M⁻¹ s⁻¹.

In general, Kd refers to the free concentration of one partner at which half of the binding sites on the other are occupied at equilibrium, for simple one-to-one binding. One may read the koff as the rate constant with which the complex falls apart. The kon is the second-order rate constant of association. Lower therefore signals slower complex formation.
